The DeepSol protein solubility set

Assay: soluble on expression in E. coli; label from the status in PepcDB or PDB records
For “MAHHHHHHMPRNRSSGDDGGGGGKRGGRYAAVVEKGENAWKREWSSFMSGVNLKRLRDGTSGVTLKASADIERQLVAREAAPSSSSVAGEHDNGNDVEVNADGIPLGAIASHASFSYLFSSPAERRAERDARERAEAERRQAHKRELMAKKDPLSVLSKHQRAMHNAEQRGLQLDGMTRKERRSFLHLTVTEAQRKAEEQSREFKLHDLMDEKLAWYQQGPHPIDLIAEKLVRRKAEKKGKQLGLKYNYLAPHPSWLAKRAQRRRESLLVGLGKRLIFLERVTGEDKDDATTVPSSEVMVTDPLHHLTVPLSEMGRLLGQHGSASLSAAAAAAADADALVTAAAGSSSGDDIEDVKGADEEGAQHLGGEVDRGHRGDVTAARKKAVSASSAASSAGGCSSASPGKRASGEAGDDGVGNDAAQMRLPDVVVLQDPSRIATSLVRTVARDRTTALAIQQINRTTNFLSSGLVKGPSLRPEDALPGNGLSPRGLGAAPAAAALTPSPKSSMVAASMQDSAANSTKGAATTSRGASAAGRGRRRVRVADGEEEGGERRRHRRGADVSAGESQTKTSKPTASPSPRPRGARPPPTHTHELRDITSRSGPSKSQGGQVSSSKTKRQRANSRYD”, the “soluble on expression in E. coli” value was “not soluble”.
In the case of “MAHHHHHHMPRRFVAEYVTKHLCGVRVLESFAETSTATGVIGTHNGSFHCDEAMACGLLRCSQNFGQSNILRSRDPNALERCNIVVDVGSVYDEATLRFDHHQPSFHDTMKTPKAAYQTRLSSAGLVYKHFGREIIQGYVESALASPYRVKLLDATKWGTDKKKLSEQELDILFDIVYKNFVEHIDGIDNGVNAYGPAETEGEEGAVPVSSSSPSCVKKYNVSTTLSARIGNLMPWWNEEGNGKVENENAAFLQAMELATSEFFDSVHYHVFAWMPARGIVRAAFLEAMNVHPSGRIVVFKDCFCPWKEHLLELEEEHGKVGHVLYVLFADKKGWRVQAVPKEASGFENRKSLPWRGLRDEELSQASGIEGGIFVHVSGFIGGNKTYEGALQMAVKALTVVN”, the “soluble on expression in E. coli” value is reported as “not soluble”.
In the case of “MAHHHHHHMQLLHAQQEGMKNIRQSEASHSDENDKKERGTRSGSTTGTCSEFDVCAVYDDDDVPLAAQFVRSCPPLTDPSWAMEELLRINSHVAVWTGSALPNSVWALPGSGHCPFGSTDADFARIR”, the “soluble on expression in E. coli” value is reported as “not soluble”.
With “MAHHHHHHMQLQADLTQRTDSVNAIQRNFERLSAMHHAEQLELRRLRLLEKTRSEVAPDGLDAATRQLESVLAEMRHKALEQQTTFVQMEVDLQAANSSCALQQGIARLIASHADGFRDVLQAEAVAHSQLYQSAMSERAIIGSRNEATQQQLLCKDVAQLVADHQAQIVTKLIRGGAAESCRLQKSLAQVSTATVQELVRQGLRETAEAVHQYVASIHAADQERVLAEAEGQRDRERLRLALGELLRLRLRATEEAEATARQALLFGALQACATAQRAAEEVRLLTANADAAAAATRSSWEVTAALLTRRVSDWHDAADMRLVDFHDTIEASMAEKARERDAQSQQKTQELLLEERKRLENLHASQMQTMQVDWRRQRDAVQQSHAMQLEQVRSDLVAQVQVAEDRRVAAERRTGAMEAALIQLKRDHAAEVQAVEAHWRSAVSDAGRHCEQRWRTMLEVYQEGQKAHRGAMLQLFVDFLCTRGQCVYEEQAERAALCRSHWRNQTQHLREEQAAVMQHGVATADLLERMRCHKEDEAASRAVLHASEASDWAALVRKEAAHNAQAHHAVSMAAAAAGLEGLRAEMAGREVRWGQRLDALEADLRRAQQKCLGVVRRASDAVVAAQEAQAALQATQRDFAAYRCGVSAAAQRIEVAESATESACCCSLCLQLYCQPVACVPCGHIYCANCLLRHARNRSLSSVTSSFASAAGASTSENGAVGARAALEVTHWLRGKSTPHAFLFCPECASATVSTVVELPILGELTAKYDYKKRSLAVLLAELR” the “soluble on expression in E. coli” value was “not soluble”.
For “MAHHHHHHMQLSRYSPPPSSSSSSLLSTVMQAKDVVTRLGPSERFPGLCGVFLTKPIKKFHPIEVLPTAASAAATTTTAATADSSAERPDASRSPTSAIVSQAPPFVLNLAFAPRHSISLRRFLALRHMFSTSAYLHVATEDGWYLVAPSSAAPLCPDVTGLQAWCCRHHHRYLKHAATAVTAATSSSTPSSRAPRCSTHTGIAKLEAALDNGEELSEEQLQRLAAQEKAFFAHTPENEEADIDDDTDETDDMPAVREPRHPLSQKTAAPTAETLRKRSAGAPASAFGLSPPLIPEAHLFDINDGVAWLLPPSDDLANHEYWKSHRQRMALYESTGDADAAEQREALLATLRADPAIAQHLSSEQELYAAAEALFQALKHKANVTLNVDADTGLLTLVPLRDLHAGEELLLHYGREWWTGRLLFSLLLSVSDAEMPQIRWIEQLFDHAVDRSEPFPLLIVAHEQRKRPRRGCSGGAKVRKGLKNESSGDGDEQQQQSTQCASLTKPHGDSAETSSTTAMTAELPVSQRKLGRAVLYNTVTHKRATDAAVLAFAVRRSCIEPCFLSRLLAGDAAGGVEPVFYLSEPDKEVPMRVLRRVLLASLRGTTASAQRSIPHKDESASVVAGSAVADTAAAVVDQGAPPQTSTNTGGDGDDGDDAVFSV”, the “soluble on expression in E. coli” value was “soluble”.
With “MAHHHHHHMQVTETVLARAVIKRRSPQLWGAPGAPIIRMRGHHVVWKFQSYDLVVEHTHKRRNSDIRLLHYLGKHCPHPQKSLWSPDTPVAQDRHLFMLTTVDIDAFKYWFGVKRCRLSMKPWALLAKAGLLPPSLTQNSKIMPKPLFDKESLMRYYLANRKDEDVMAREKYLNYENSMVKTEEERAAERPVAPYL” the “soluble on expression in E. coli” value was “soluble”.
In the case of “MAHHHHHHMQWKKDDLFEGLRKLPRTPGELFGHRNKLNFILQKRFFIAPDMVELALNRQNGEQFNRCYAKLVMQAVAKFNNTTRSQLKVRVDPRLPKGLQLIQPDDKDTGANLKSKKSEKAASGRLNAFSNTTSGQQRKPQQRQQSRYCSPQSGGVSPRVVMPIDPAERDCLYATYLRARTPQSGTPDYSDMMLQSPSCATDGKTTMFSEDGSSALRSATRRSAGDVHFATPPVFKGFERTLELTPADSPTESLPLHF”, the “soluble on expression in E. coli” value is reported as “not soluble”.
In the case of “MAHHHHHHMQYINDEGYRIDGRKNDECRLIKISLGNGNELIDVDGFSFFEIGNTKLFAYIQGPNEYRRPDEKCLVKCNVFLSPFNILEKKRKKSKDNVTREISSYIRNICNHIILLDLYKNSEINIFLYIIERDGGLKAAAVNTCILALIDAGIAIKYFISASSVLYLQNNIIVDGNQFEVNSGSPELTLAIDMSSNNIVLLEFDAEVPIDIFQSMLKTCAQACIHVGNIMKLSIKENAIKLLSLNSILNT”, the “soluble on expression in E. coli” value is reported as “not soluble”.
With “MAHHHHHHMRAESSGSESQSRQSERTCGVSPGGPGGPGASPSIVVAVRKRPRIPGREDDENDVVRCGENGGPSVTVYEPRTKLDLTPIIEPSSFSYDHVFGEACTNEEVYRGCCQPLLQNVREGGGAVIFAFGQTGSGKTHTMLGTGERPGLYSLAVTELLTMTEHSTMTASFYEAYGAKLYDLLNDRAEVKMLQDEYQNVHIVGITEQIVSSVDDVNALMMRGQQLRAIGTTHANDRSSRSHAVLEIKLKLADSSSESQLGRITFVDLAGSERASDTAETDAKTRREGAEINKSLLALKECIRAMSMRKRHIPFRGSKLTQILRESFVGRCKTCVIAAISPCQGHCEDTLNTLRYADRIKELKGPANPHNGVKPIPCKTCGQPIFIGDRHVCKRQLVVCPHCRQDVDKQELDTHMSECKESPMRCQYCNERMLRSESVGHSRRCARAPIRCGACGATVPRQLIDRHAQQECAEAKVKCRYCGCVQSRQLLAAHEQNCDAAKVACPHCLQFMRKRRLDGHVATCVRNLSRAMHTPRSTALNIIASTSMETSQTLASSSSSIGAQQSIPKSATAQTAASSRASSSHNRNVAAEPAGGQVDLVAADEGTGPLNFTRAHSSRRSSAQLASGVSLANQSQSNRAPGAGGRWNAGALGADEVSAACDSDCGSVVCPYSRYGCPVKVTRLNVAAHLKESMQQHLELVTTYADRVDEQNMQLRRLVIHETDTLSSRVTMERLDK” the “soluble on expression in E. coli” value was “not soluble”.
In the case of “MAHHHHHHMRCCSTALRTGRRGPGGWTEPRLQQATSTDFMRDSTGTGGDNNNNNNNDGGKGPSSALKRHFNVNDFSMIERQQMTLTKLMRITMDATFKPKDPDSRTYGGDGATQRAALREELKTMDSRIVPFAHEEILNDYLKNIVELSGPSGQRYDREMLRGRLVGLLFFTETDRSLAFMRLLREFHQRHRRDFVVVAISLGGKEMMDITRQHGFYHCSHRDGATWVQRDTGLMVRPWTPLPRLIVVNGTSGEEITSSGVTAVKAHPNTCFEKWKNGEEGCDWWDYIKTFYM”, the “soluble on expression in E. coli” value is reported as “soluble”.
In the case of “MAHHHHHHMRCFRASCCAPSPWQRACSTVASVSDTADLVIVRESPLDNVVLLEMNNGRANVLTPEFISAFLNKLSDLCDPDKSKCSGIILTSKSPGVFSAGLDLNELNTNLSQDRFAQYWSQFQKLFTTLHALPVPLVGAINGHAAAAGCIVALACDYRVMARRHPTKPTHLTIGIAAAKHGFVVPSYVAASMEHVVGFRKAEELLCMGLLLSAGEALKVGLVDEVVEHHDETVVPCLQFMEKLLELPSPAPYWMIKDLSRRHILAPLCTPALRTQDMVSFYNLFSNLQVKKMLAEHAQKFAKK”, the “soluble on expression in E. coli” value is reported as “not soluble”.
With “MAHHHHHHMRCVRRSVLGSRGLKRPMFNYTRIFSMGITQHTFTGALLEDLRAGGCCGDQTEDNPGSSLRHGELDHFESPEAEAAHVEKVNTVVDDLFSRMPLPEDPMGAALAPTKEEMEEKAEWDVLKEVVRERYQRKIALKEAERVRIDKAMQHYRVDKDIEGGVSGVTGATGDSEKIRKKIERMKQEIVELERRLEAANHDDNL” the “soluble on expression in E. coli” value was “not soluble”.
With “MAHHHHHHMRLLTHNFLACLKCDTYPLLVTAAEMEEIPVEYDAEFTRRMLARVDYASLRTTFHALREAHESVRGPSHDEGADTAEGALASSELPETMEGADFSDHSAFLRTAHYAMNVVAVRNGTLECPACKTTFSINDFIPNFVPEAK” the “soluble on expression in E. coli” value was “soluble”.
In the case of “MAHHHHHHMRLTASRALLQQAGEMCTALHWMCRIAARVPESGLSGSQLQALLDDEFPSFSPSEVGAVTLKEAVLRFPELLSVEDGSQLQAKWRVRPTHAHKTQEQRASPSSKPTETYTLPMMKLQQFCTKRARMHRNTYMPLEYVLSKADITDVNIVGEVLHNPDAALDVQAGVRIKPKRTPRAVVAFVDGDALPAVAVDEMCNELNVLKESSIVTIVRQPGSHELSAVDIVCPDVIPTYLSIEKHAHELRLRRPNVRHDVVYMCAASQFNIYADRVALLNDFPDADVYVCCPSMIALVKPKKVIPFE”, the “soluble on expression in E. coli” value is reported as “soluble”.
In the case of “MAHHHHHHMRPSHKRQAQRQHPRQQCSVAHKAQRAPSSVHGTSGVEHLPRDAVVHVALRKQHRPAGQAHRRIKRHRVVPRRHKVAPHKYHSGARHAHSPTHRHRVLAQQEVAVNKRRNRAANCRNTALHRHAQPQRRLHKKPVHVQRTARRQRHAANHQHANSVAEHRRQLRARDVQHAPRQIHVV”, the “soluble on expression in E. coli” value is reported as “soluble”.
In the case of “MAHHHHHHMRSNRNGSHSFFFLSVYSWFIFSPFEVFDDEYFLVDEKEKYVFLFVFVFMEEKRICVVVFPVPKVHAAAEIVIVDAVLFPHAADTDELKLCHF”, the “soluble on expression in E. coli” value is reported as “not soluble”.
For “MAHHHHHHMRVALIFGITGQDGSYLSELLLEKNYHVHGVIRRCSSFNTKRIDHIFDKLILHYGDLLDSSNICSLICEIKPNEIYNLAAQSHVKVSFEMPEYTTEATALGTLRILEGIRISKVKNIKFYNASTSELFGKVQCPIQNENTPFYPVSPYAIAKLYAHYITINYRESYNMFCINGILFNHESPRRGETFVTRKITRGIAKIQKKLETSIILGNIDTYRDWGHAKDYVYAMYLMLQQNEADDFVICSNEQHSVREFCEISFSFVNIHIKWIGKGIQEIGVDQNNNVLIKKHEKYFRNCEVNTLLGDCSKAKNILKWEPTYTFTQLVYEMLKCDMQDYNLSMDDYDTCMKKYDTYKMGKKQ”, the “soluble on expression in E. coli” value was “not soluble”.
